Here are results for nine molecules from patent publication US20060233788A1 (published 2006).

Where a chain is given by its changes, count along the chain named. No end group written: not given here. *: point of attachment. Octanoyl = CCCCCCCC(=O)*

T1: human ghrelin peptide 4-28 (human)
T1 peptide: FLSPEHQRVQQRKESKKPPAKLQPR

T2: human ghrelin peptide 4-16 (human)
T2 peptide: FLSPEHQRVQQRK

T3: human ghrelin peptide spanning amino acids 4-20 (human)
T3 peptide: FLSPEHQRVQQRKESKK

T4: human ghrelin peptide 7-16 (human)
T4 peptide: PEHQRVQQRK

T5: human ghrelin peptide 13-19 (human)
T5 peptide: QQRKESK

T6: human ghrelin peptide 18-28 (human)
T6 peptide: SKKPPAKLQPR

T7: peptide spanning amino acids 14-28 of human ghrelin (human)
T7 peptide: QRKESKKPPAKLQPR

B1: Human 1-13 acyl (peptide)
peptide: GSSFLSPEHQRVQ
modifications: also: acyl (position and group not restated)
notes: also called human ghrelin 1-13 acyl; active human ghrelin analog
B2: full-length, acylated rat ghrelin (peptide, UniProt Q9QYH7 24-51, looked up)
peptide: GSSFLSPEHQKAQQRKESKKPPAKLQPR
modifications: also: acylated (position and acyl group not given here)
notes: mature; The UniProt entry is the precursor; the assay used the ghrelin peptide; also called rGhrelin
B3: Ghrelin (1-8, desacyl) (peptide)
peptide: GSSFLSPE
notes: also called hGhrelin (1-8 desacyl)
B4: Ghrelin (9-28) (peptide)
peptide: HQRVQQRKESKKPPAKLQPR
notes: also called hGhrelin (9-28)
B5: full-length human ghrelin (1-28) acylated with an octanoyl group on the serine at position 3 (peptide)
peptide: GSSFLSPEHQRVQQRKESKKPPAKLQPX
modifications: octanoyl group on the serine at position 3
notes: the 1-28 form has Arg at 28; also called hGhrelin; acylated hGhrelin
B6: Fab 1181 (Fab, V domains shown)
VH: QVQLQQSGAELVRSGASVKLSCTASGFNIKDYFMQWVKQRPEQGLEWIGWIDPENGETGYAPKFQGKATMTADTASNTAYLQLSSLTSEDTALYYCNAPSVVAKYFDVWGAGTTVTVSS
VL: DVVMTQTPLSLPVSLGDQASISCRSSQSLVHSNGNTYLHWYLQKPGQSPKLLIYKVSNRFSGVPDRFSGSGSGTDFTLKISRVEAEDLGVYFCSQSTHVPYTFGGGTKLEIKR
notes: Mouse Fab from an Omniclonal library (Biosite); kappa light chain (detected and captured with goat anti-mouse kappa); the HCVR amino acid entry is 12
B7: Fab 1621 (Fab, V domains shown)
VH: B6 VH with M34V, Y95F
VL: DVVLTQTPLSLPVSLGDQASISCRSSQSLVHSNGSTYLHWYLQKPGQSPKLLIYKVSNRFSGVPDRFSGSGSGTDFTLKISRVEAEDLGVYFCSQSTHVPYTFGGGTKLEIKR
notes: Mouse Fab, kappa light chain
B8: Fab 4641 (Fab, V domains shown)
VH: QVQLQQSRPELVRPGASVKMSCRASAYTFTTYWMHWVRQRPGQGLEWIGMIDPSNSDTWLNQKFKDKATLNVDRSSNTAYMQLTSLTSEDSAVYYCARTGFDYWGQGTTLTVSS
VL: DVVMTQTPLSLPVSLGDQASISCRSSQSLVHSDGNTYLHWYLQKPGQSPKLLIYKVSNRFSGVPDRFSGSGSGTDFTLKISRVEAEDLGVYFCSQSTYVSYTFGGGTKLEIKR
notes: Mouse Fab
B9: Ghrelin (1-8 acyl) (peptide)
peptide: GSS(Octanoyl)FLSPE
notes: also called hGhrelin (1-8 acyl); Human 1-8 acyl

Assay [1] deals with T8, GHS-R1a human ghrelin receptor (human, UniProt Q92847 1-366).
T8 construct: whole, on cells; also called GHS-1a receptor; growth hormone secretagogue receptor
Nature of the assay: FLIPR calcium assay, AV12 cells expressing human GHS-R1a.

For assay [2], the target named is B7. The assay can be described thus: competitive ELISA, Fab 1621 on coated BSA-hGhrelin; compound 0 (baseline, no compound). How it is done:
(§1) The plate was incubated at 4° C. overnight. The wells are aspirated and washed twice with washing buffer (20 mM Tris-Cl, pH 7.4, 0.15 M NaCl, 0.1% Tween 20). Compounds (i.e., human ghrelin or ghrelin analogs) are diluted into antibody solution. […] The compound concentration is varied as listed in Tables 2-5 below, but the Fab concentration is kept constant at 0.1 μg/ml in blocking solution (10 mg/ml BSA in wash buffer). […] The plates are incubated for 1 hour at room temperature. The wells are then washed three times with washing buffer.
(§2) Peroxidase-conjugated secondary antibody (50 μl goat anti-mouse kappa HRP (Southern Biotech), diluted 1:2000 in blocking buffer) is added to each well and incubated for 1 hour at room temperature. The wells are then washed 4 times with washing buffer. Fifty microliters of chromogenic substrate (i.e., OPD substrate) is added to each well and allowed to develop at room temperature for 10 minutes. The reaction is stopped by adding 100 μl 1N HCl to each well. The absorbance of the wells is read at 490 nm.
(§3) The average absorbance from triplicate wells is determined.
Target sequence in this assay (VL, as listed by the source limits assumed): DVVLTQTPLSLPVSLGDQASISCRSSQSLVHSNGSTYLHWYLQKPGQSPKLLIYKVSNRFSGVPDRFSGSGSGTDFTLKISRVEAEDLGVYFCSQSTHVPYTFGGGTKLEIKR

Assay [3] addresses B6. Nature of the assay: competitive ELISA, Fab 1181 on coated BSA-hGhrelin; compound 0 (baseline, no compound). How it is done: as §1, §2, §3
On the technique in general: In an ELISA, binding on a coated surface is turned into a signal by an enzyme label.

Assay [4] deals with B7. The assay can be described thus: competitive ELISA, Fab 1621 on coated BSA-hGhrelin; compound 1 ug/ml. How it is done:
as §1, §2, §3
Target sequence in this assay (VH, as listed by the source limits assumed, chain 1 of 2): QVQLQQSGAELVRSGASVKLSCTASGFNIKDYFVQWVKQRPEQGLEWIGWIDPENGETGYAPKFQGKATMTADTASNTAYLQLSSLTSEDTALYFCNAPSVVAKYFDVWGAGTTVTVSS
Target sequence in this assay (VL, as listed by the source limits assumed, chain 2 of 2): as the sequence (VL, as listed by the source limits assumed) above

In assay [5] the target is B7. Nature of the assay: competitive ELISA, Fab 1621 on coated BSA-hGhrelin; compound 5 ug/ml. How it is done:
as §1, §2, §3
Target sequence in this assay (VH, as listed by the source limits assumed, chain 1 of 2): as the sequence (VH, as listed by the source limits assumed, chain 1 of 2) above
Target sequence in this assay (VL, as listed by the source limits assumed, chain 2 of 2): as the sequence (VL, as listed by the source limits assumed) above

The target in assay [6] is B6. Nature of the assay: competitive ELISA, Fab 1181 on coated BSA-hGhrelin; compound 1 ug/ml. How it is done:
as §1, §2, §3
Target sequence in this assay (VL, as listed by the source, chain 2 of 2, one chain of several): as the sequence (VL, as listed by the source limits assumed) above, with L4M, S35N counted along it

Assay [7] deals with B6. The assay can be described thus: competitive ELISA, Fab 1181 on coated BSA-hGhrelin; compound 5 ug/ml. As for the experimental part:
as §1, §2, §3
Target sequence in this assay (VL, as listed by the source, chain 2 of 2, one chain of several): as the sequence (VL, as listed by the source limits assumed) above, with L4M, S35N counted along it

The target of assay [8] is B7. Nature of the assay: competitive ELISA, Fab 1621 on coated BSA-hGhrelin; compound 0.2 ug/ml. How it is done:
as §1, §2, §3
Target sequence in this assay (VH, as listed by the source limits assumed, chain 1 of 2): as the sequence (VH, as listed by the source limits assumed, chain 1 of 2) above
Target sequence in this assay (VL, as listed by the source limits assumed, chain 2 of 2): as the sequence (VL, as listed by the source limits assumed) above

For assay [9], the target named is B6. The assay can be described thus: competitive ELISA, Fab 1181 on coated BSA-hGhrelin; compound 0.2 ug/ml. How it is done:
as §1, §2, §3
Target sequence in this assay (VL, as listed by the source, chain 2 of 2, one chain of several): as the sequence (VL, as listed by the source limits assumed) above, with L4M, S35N counted along it

The assay “Ghrelin (1-8 acyl)” deals with B9. The assay can be described thus: competitive ELISA on coated BSA-hGhrelin. As for the experimental part: as §1, §2
In assay [10] the target is T1, human ghrelin peptide 4-28. Nature of the assay: cell-based or functional assay.
Assay [11] concerns the target T2, human ghrelin peptide 4-16. Nature of the assay: cell-based or functional assay.
Assay [12] concerns the target T3, human ghrelin peptide spanning amino …. Nature of the assay: cell-based or functional assay.
Assay [13] has as its target T4, human ghrelin peptide 7-16. The assay can be described thus: FLIPR assay, peptide competes with hGhrelin for the Fab.
Assay [14] has as its target T5, human ghrelin peptide 13-19. Described as above.
For assay [15], the target named is T6, human ghrelin peptide 18-28. The assay is described as above.
For the assay “Ghrelin (9-28)”, the target named is B4. The assay is described as above.
The target in assay [16] is B2. Nature of the assay: SPR (BIAcore 2000), Fab captured on goat anti-mouse kappa, ghrelin in solution, 25 C. As for the experimental part: (§4) The BIAcore® utilizes the optical properties of surface plasmon resonance to detect alterations in protein concentration of interacting molecules within a dextran biosensor matrix. Except where noted, all reagents and materials are purchased from BIAcore® AB (Upsala, Sweden). All measurements are performed at 25° C. Samples containing rat or human ghrelin (full length, acylated) are dissolved in HBS-EP buffer (150 mM sodium chloride, 3 mM EDTA, 0.005% (w/v) surfactant P-20, and 10 mM HEPES, pH 7.4). A capture antibody, goat anti-mouse Kappa (Southern Biotechnology, Inc), is immobilized onto flow cells using amine-coupling chemistry. Flow cells (1-4) are activated for 7 minutes with a 1:1 mixture of 0.1 M N-hydroxysuccinimide and 0.1 M 3-(N,N-dimethylamino)propyl-N-ethylcarbodiimide at a flow rate of 10 μl/min. Goat anti-mouse Kappa (30 μg/mL in 10 mM sodium acetate, pH 4.5) is manually injected over all 4 flow cells at a flow rate of 10 μL/min. The surface density is monitored and additional goat anti-mouse Kappa is injected if needed to individual cell until all flow cells reach a surface density of 4500-5000 response units (RU). Surfaces are blocked with a 7 minute injection of 1 M ethanolamine-HCl, pH 8.5(10 μl/min). To ensure complete removal of any noncovalently bound goat anti-mouse Kappa, 15 μL of 10 mM glycine, pH 1.5 is injected twice. Running buffer used for kinetic experiments contained 10 mM HEPES, pH 7.4, 150 mM NaCl, 0.005% P20.
(§5) Collection of kinetic binding data is performed at maximum flow rate (100 μL/min) and a low surface density to minimize mass transport effects.
In general terms: In SPR one partner is held on a chip, and binding of the other changes the refractive index at the surface.

The target in assay [17] is T9, full-length human ghrelin not acylated (human).
T9 construct: also called hGhrelin (desacyl); des-acyl hGhrelin
Described as above. How it is done:
as §4, §5

The target in assay [18] is B5. The description is as above. How it is done:
as §4, §5

The target in assay [19] is B5. The assay can be described thus: cell-based or functional assay.
The target in the assay “Ghrelin (1-8, desacyl)” is B3. Nature of the assay: FLIPR assay, peptide competes with hGhrelin for the Fab (no reduction means the Fab does not bind the peptide).
Assay [20] addresses T7, peptide spanning amino acids 14-28 of …. The assay can be described thus: FLIPR assay, peptide competes with hGhrelin for the Fab (Fab 5 nM). How it is done:
The final concentration of the sample solution is 0.75% BSA, and calcium at approximately the same concentration as in the FLIPR buffer. Fifty microliters of the sample solution is added to the 50 μl FLIPR buffer in the well with the AV12 cells. […] The cell plate is shaken for 15 seconds prior to loading it into the FLIPR instrument. Test samples or control samples are added to each well, and read by a Fluorometric Imaging Plate Reader (Molecular Devices).

T8 sequence (Q92847 whole entry): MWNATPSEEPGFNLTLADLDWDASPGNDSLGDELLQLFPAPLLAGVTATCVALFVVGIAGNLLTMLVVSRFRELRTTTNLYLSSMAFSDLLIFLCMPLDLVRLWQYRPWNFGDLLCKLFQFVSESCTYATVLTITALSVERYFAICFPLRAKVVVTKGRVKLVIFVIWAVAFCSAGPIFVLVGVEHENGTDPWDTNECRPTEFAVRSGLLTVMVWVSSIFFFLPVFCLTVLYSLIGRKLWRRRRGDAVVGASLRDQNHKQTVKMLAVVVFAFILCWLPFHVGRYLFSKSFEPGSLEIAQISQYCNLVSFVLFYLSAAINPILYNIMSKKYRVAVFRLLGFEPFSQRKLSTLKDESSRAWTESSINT

Take B1: the binding result in [1] is listed as “binds”.
Consider B2, for which the “Ave. OD” value with Fab 1621 [2] worked out at 1.17 OD; in the assay with Fab 1181 [3], 1.23 OD; with Fab 1621 [4], 0.932 OD; with Fab 1621 [5] it was 0.429 OD; with Fab 1181 [6], 0.883 OD; with Fab 1181 [7], 0.178 OD. In addition, the “Ave. OD” value with Fab 1621 [8] came out at 0.999 OD; with Fab 1181 [9], 1.12 OD. For the same molecule, in [1], the binding result is “binds”.
B3: the “Ave. OD” value in the assay with Fab 1621 [2] came out at 1.17 OD; with Fab 1181 [3], 1.23 OD; with Fab 1621 [4], 1.33 OD; with Fab 1621 [5], 1.26 OD; in the assay with Fab 1181 [6], 1.19 OD; in the assay with Fab 1181 [7] it was 1.18 OD. Also, the “Ave. OD” value came to 1.38 OD with Fab 1621 [8] and 1.22 OD in the assay with Fab 1181 [9].
On to B4, for which the “Ave. OD” value was determined as 1.17 OD in the assay with Fab 1621 [2]; 1.23 OD with Fab 1181 [3]; 1.05 OD with Fab 1621 [4]; 1.02 OD with Fab 1621 [5]; 1.17 OD in the assay with Fab 1181 [6]; 1.11 OD with Fab 1181 [7]. Also, the results for the “Ave. OD” value in the assay with Fab 1621 [8] and in the assay with Fab 1181 [9] were 1.04 OD and 1.13 OD, respectively.
For the molecule B5, the “Ave. OD” value in the assay with Fab 1621 [2] came to 1.17 OD; with Fab 1181 [3], 1.23 OD; in the assay with Fab 1621 [4] it was 0.0495 OD; in the assay with Fab 1621 [5] it was 0.043 OD; with Fab 1181 [6], 0.0497 OD; with Fab 1181 [7] it was 0.0445 OD. Besides, the “Ave. OD” value with Fab 1621 [8] was 0.131 OD; with Fab 1181 [9] it was 0.0784 OD.
Consider B6, for which the binding result with Ghrelin (1-8 acyl) is reported as “no binding (tested: 5 µg/ml)”; in assay [13] it was “no binding (tested: 100 nM peptide)”; in [14] it was “no binding (tested: 100 nM peptide)”; in [15] it was “no binding (tested: 100 nM peptide)”; in the assay with Ghrelin (9-28) it was “no binding (tested: 100 nM peptide)”; in the assay with Ghrelin (1-8, desacyl), “no binding (tested: 100 nM peptide)”. Further, the “reduction of Fab inhibition of hGhrelin (0.83 nM), FLIPR calcium assay; peptide 100 nM, Fab 0.95 nM” value in [10] is 80%; in [11], 30%; in [12], 74%. The Kd (usually the equilibrium constant for the complex coming apart) in [16] turned out to be 10.4 nM; in [17], 0.434 nM; in assay [18] it was 0.202 nM. In addition, the kon (in general, a measure of how fast the partners come together) in assay [18] was 3.39e+06 M⁻¹ s⁻¹. For the same molecule, in [19], the “IC50 (nM), Inhibition of hGhrelin at 0.8 nM, FLIPR calcium assay” value is 0.8 nM.
With B7, the binding result is reported as “no binding (tested: 5 µg/ml)” with Ghrelin (1-8 acyl); “no binding (tested: 100 nM peptide)” in assay [13]; “no binding (tested: 100 nM peptide)” in assay [14]; “no binding (tested: 100 nM peptide)” in [15]; “no binding (tested: 100 nM peptide)” with Ghrelin (9-28); “no binding (tested: 100 nM peptide)” with Ghrelin (1-8, desacyl). Also, the values for the Kd in [16], in assay [17] and in assay [18] were 5.7 nM, 1.74 nM and 0.68 nM, respectively. The “IC50 (nM), Inhibition of hGhrelin at 0.8 nM, FLIPR calcium assay” value in assay [19] stood at 1.64 nM.
Regarding B8, in [20], the binding result is given as “no binding (tested: 100 nM peptide)”.
Regarding B9, the “Ave. OD” value with Fab 1621 [2] was found to be 1.17 OD; with Fab 1181 [3], 1.23 OD; with Fab 1621 [4], 1.32 OD; in the assay with Fab 1621 [5], 1.22 OD; in the assay with Fab 1181 [6] it was 1.22 OD; with Fab 1181 [7] it was 1.21 OD. Besides, the “Ave. OD” value amounted to 1.36 OD with Fab 1621 [8] and 1.26 OD in the assay with Fab 1181 [9].
